B1: M-Q9BQ95 (protein, UniProt Q9BQ95 49-431, looked up)
Evolutionarily conserved …: SSEQSLVPSPPEPRQRPTKALVPFEDLFGQAPGGERDKASFLQTVQKFAEHSVRKRGHIDFIYLALRKMREYGVERDLAVYNQLLNIFPKEVFRPRNIIQRIFVHYPRQQECGIAVLEQMENHGVMPNKETEFLLIQIFGRKSYPMLKLVRLKLWFPRFMNVNPFPVPRDLPQDPVELAMFGLRHMEPDLSARVTIYQVPLPKDSTGAADPPQPHIVGIQSPDQQAALARHNPARPVFVEGPFSLWLRNKCVYYHILRADLLPPEEREVEETPEEWNLYYPMQLDLEYVRSGWDNYEFDINEVEEGPVFAMCMAGAHDQATMAKWIQGLQETNPTLAQIPVVFRLAGSTRELQTSSAGLEEPPLPEDHQEEDDNLQRQQQGQS
B2: M-Q9BQT8 (protein, UniProt Q9BQT8 1-299, looked up)
Mitochondrial …: MSAKPEVSLVREASRQIVAGGSAGLVEICLMHPLDVVKTRFQIQRCATDPNSYKSLVDSFRMIFQMEGLFGFYKGILPPILAETPKRAVKFFTFEQYKKLLGYVSLSPALTFAIAGLGSGLTEAIVVNPFEVVKVGLQANRNTFAEQPSTVGYARQIIKKEGWGLQGLNKGLTATLGRHGVFNMVYFGFYYNVKNMIPVNKDPILEFWRKFGIGLLSGTIASVINIPFDVAKSRIQGPQPVPGEIKYRTCFKTMATVYQEEGILALYKGLLPKIMRLGPGGAVMLLVYEYTYSWLQENW
modifications: interaction partner of viral M protein
B3: M-Q9BV40 (protein, UniProt Q9BV40 1-100, looked up)
Vesicle-associated membrane …: MEEASEGGGNDRVRNLQSEVEGVKNIMTQNVERILARGENLEHLRNKTEDLEATSEHFKTTSQKVARKFWWKNVKMIVLICVIVFIIILFIVLFATGAFS
modifications: host interactor of M
B4: M-Q9BYC5 (protein, UniProt Q9BYC5 1-575, looked up)
Alpha-(1,6)-fucosyltransferase: MRPWTGSWRWIMLILFAWGTLLFYIGGHLVRDNDHPDHSSRELSKILAKLERLKQQNEDLRRMAESLRIPEGPIDQGPAIGRVRVLEEQLVKAKEQIENYKKQTRNGLGKDHEILRRRIENGAKELWFFLQSELKKLKNLEGNELQRHADEFLLDLGHHERSIMTDLYYLSQTDGAGDWREKEAKDLTELVQRRITYLQNPKDCSKAKKLVCNINKGCGYGCQLHHVVYCFMIAYGTQRTLILESQNWRYATGGWETVFRPVSETCTDRSGISTGHWSGEVKDKNVQVVELPIVDSLHPRPPYLPLAVPEDLADRLVRVHGDPAVWWVSQFVKYLIRPQPWLEKEIEEATKKLGFKHPVIGVHVRRTDKVGTEAAFHPIEEYMVHVEEHFQLLARRMQVDKKRVYLATDDPSLLKEAKTKYPNYEFISDNSISWSAGLHNRYTENSLRGVILDIHFLSQADFLVCTFSSQVCRVAYEIMQTLHPDASANFHSLDDIYYFGGQNAHNQIAIYAHQPRTADEIPMEPGDIIGVAGNHWDGYSKGVNRKLGRTGLYPSYKVREKIETVKYPTYPEAEK
modifications: interaction partner of SARS-CoV-2 M
B5: M-Q9NQC3 (protein, UniProt Q9NQC3 1-1192, looked up)
Reticulon-4: MEDLDQSPLVSSSDSPPRPQPAFKYQFVREPEDEEEEEEEEEEDEDEDLEELEVLERKPAAGLSAAPVPTAPAAGAPLMDFGNDFVPPAPRGPLPAAPPVAPERQPSWDPSPVSSTVPAPSPLSAAAVSPSKLPEDDEPPARPPPPPPASVSPQAEPVWTPPAPAPAAPPSTPAAPKRRGSSGSVDETLFALPAASEPVIRSSAENMDLKEQPGNTISAGQEDFPSVLLETAASLPSLSPLSAASFKEHEYLGNLSTVLPTEGTLQENVSEASKEVSEKAKTLLIDRDLTEFSELEYSEMGSSFSVSPKAESAVIVANPREEIIVKNKDEEEKLVSNNILHNQQELPTALTKLVKEDEVVSSEKAKDSFNEKRVAVEAPMREEYADFKPFERVWEVKDSKEDSDMLAAGGKIESNLESKVDKKCFADSLEQTNHEKDSESSNDDTSFPSTPEGIKDRSGAYITCAPFNPAATESIATNIFPLLGDPTSENKTDEKKIEEKKAQIVTEKNTSTKTSNPFLVAAQDSETDYVTTDNLTKVTEEVVANMPEGLTPDLVQEACESELNEVTGTKIAYETKMDLVQTSEVMQESLYPAAQLCPSFEESEATPSPVLPDIVMEAPLNSAVPSAGASVIQPSSSPLEASSVNYESIKHEPENPPPYEEAMSVSLKKVSGIKEEIKEPENINAALQETEAPYISIACDLIKETKLSAEPAPDFSDYSEMAKVEQPVPDHSELVEDSSPDSEPVDLFSDDSIPDVPQKQDETVMLVKESLTETSFESMIEYENKEKLSALPPEGGKPYLESFKLSLDNTKDTLLPDEVSTLSKKEKIPLQMEELSTAVYSNDDLFISKEAQIRETETFSDSSPIEIIDEFPTLISSKTDSFSKLAREYTDLEVSHKSEIANAPDGAGSLPCTELPHDLSLKNIQPKVEEKISFSDDFSKNGSATSKVLLLPPDVSALATQAEIESIVKPKVLVKEAEKKLPSDTEKEDRSPSAIFSAELSKTSVVDLLYWRDIKKTGVVFGASLFLLLSLTVFSIVSVTAYIALALLSVTISFRIYKGVIQAIQKSDEGHPFRAYLESEVAISEELVQKYSNSALGHVNCTIKELRRLFLVDDLVDSLKFAVLMWVFTYVGALFNGLTLLILALISLFSVPVIYERHQAQIDHYLGLANKNVKDAMAKIQAKIPGLKRKAE
B6: M-Q9NVI1 (protein, UniProt Q9NVI1 1-1328, looked up)
Fanconi anemia group I protein: MDQKILSLAAEKTADKLQEFLQTLREGDLTNLLQNQAVKGKVAGALLRAIFKGSPCSEEAGTLRRRKIYTCCIQLVESGDLQKEIASEIIGLLMLEAHHFPGPLLVELANEFISAVREGSLVNGKSLELLPIILTALATKKENLAYGKGVLSGEECKKQLINTLCSGRWDQQYVIQLTSMFKDVPLTAEEVEFVVEKALSMFSKMNLQEIPPLVYQLLVLSSKGSRKSVLEGIIAFFSALDKQHNEEQSGDELLDVVTVPSGELRHVEGTIILHIVFAIKLDYELGRELVKHLKVGQQGDSNNNLSPFSIALLLSVTRIQRFQDQVLDLLKTSVVKSFKDLQLLQGSKFLQNLVPHRSYVSTMILEVVKNSVHSWDHVTQGLVELGFILMDSYGPKKVLDGKTIETSPSLSRMPNQHACKLGANILLETFKIHEMIRQEILEQVLNRVVTRASSPISHFLDLLSNIVMYAPLVLQSCSSKVTEAFDYLSFLPLQTVQRLLKAVQPLLKVSMSMRDCLILVLRKAMFANQLDARKSAVAGFLLLLKNFKVLGSLSSSQCSQSLSVSQVHVDVHSHYNSVANETFCLEIMDSLRRCLSQQADVRLMLYEGFYDVLRRNSQLANSVMQTLLSQLKQFYEPKPDLLPPLKLEACILTQGDKISLQEPLDYLLCCIQHCLAWYKNTVIPLQQGEEEEEEEEAFYEDLDDILESITNRMIKSELEDFELDKSADFSQSTSIGIKNNICAFLVMGVCEVLIEYNFSISSFSKNRFEDILSLFMCYKKLSDILNEKAGKAKTKMANKTSDSLLSMKFVSSLLTALFRDSIQSHQESLSVLRSSNEFMRYAVNVALQKVQQLKETGHVSGPDGQNPEKIFQNLCDITRVLLWRYTSIPTSVEESGKKEKGKSISLLCLEGLQKIFSAVQQFYQPKIQQFLRALDVTDKEGEEREDADVSVTQRTAFQIRQFQRSLLNLLSSQEEDFNSKEALLLVTVLTSLSKLLEPSSPQFVQMLSWTSKICKENSREDALFCKSLMNLLFSLHVSYKSPVILLRDLSQDIHGHLGDIDQDVEVEKTNHFAIVNLRTAAPTVCLLVLSQAEKVLEEVDWLITKLKGQVSQETLSEEASSQATLPNQPVEKAIIMQLGTLLTFFHELVQTALPSGSCVDTLLKDLCKMYTTLTALVRYYLQVCQSSGGIPKNMEKLVKLSGSHLTPLCYSFISYVQNKSKSLNYTGEKKEKPAAVATAMARVLRETKPIPNLIFAIEQYEKFLIHLSKKSKVNLMQHMKLSTSRDFKIKGNILDMVLREDGEDENEEGTASEHGGQNKEPAKKKRKK
modifications: interactor of viral M protein
B7: M-Q9UBU6 (protein, UniProt Q9UBU6 1-413, looked up)
Protein FAM8A1: MAEGPEEARGHPPGQDDGGGDHEPVPSLRGPPTTAVPCPRDDPQAEPQAPGRPTAPGLAAAAAADKLEPPRELRKRGEAASGSGAELQEQAGCEAPEAAAPRERPARLSAREYSRQVHEWLWQSYCGYLTWHSGLAAFPAYCSPQPSPQSFPSGGAAVPQAAAPPPPQLGYYNPFYFLSPGAAGPDPRTAAGISTPAPVAGLGPRAPHVQASVRATPVTRVGSAAPSRSPSETGRQAGREYVIPSLAHRFMAEMVDFFILFFIKATIVLSIMHLSGIKDISKFAMHYIIEEIDEDTSMEDLQKMMVVALIYRLLVCFYEIICIWGAGGATPGKFLLGLRVVTCDTSVLIAPSRVLVIPSSNVSITTSTIRALIKNFSIASFFPAFITLLFFQHNRTAYDIVAGTIVVKRNGVR
modifications: interaction partner of viral M protein

System: SARS-CoV-1, MERS-CoV and SARS-CoV-2 proteins in HEK293T cells
Design: species or system human

Molecule | MIST_MERS | MIST_SARS1 | MIST_SARS2 | Saint_MERS | Saint_SARS1 | Saint_SARS2
B1 | 0 | 0.9893 | 0 | 0 | 0.97 | 0
B2 | 0.4327 | 0.6946 | 0.8808 | 0 | 0.65 | 0.65
B3 | 0.9874 | 0 | 0 | 1 | 0 | 0
B4 | 0.963 | 0 | 0 | 0.98 | 0 | 0
B5 | 0 | 0.4448 | 0.8738 | 0 | 1 | 1
B6 | 0.8133 | 0.7245 | 0.5573 | 1 | 1 | 1
B7 | 0 | 0.88 | 0.8045 | 0 | 0.63 | 0.97

— US20230395193A1 (priority 2020, published 2023)
